Experimental data from US20140308287A1 (SEA LANE BIOTECHNOLOGIES, published 2014).

Legend:
[1] = molecular target: T1, human ErbB3 expressed on the surface of cells (BxPC-3 and other human tumor cell lines) (human, UniProt P21860 20-1342); test: flow cytometry on BxPC-3 cells
T1 construct: SKBR3, PathHunter reporter cells in functional assays; The leader 1-19 is not part of the mature protein; also called cell surface ErbB3; cell surface receptor
Description: (§1) Briefly, BxPC-3 cells were first dissociated using 0.25% trypsin, 0.2% EDTA, washed in cold PBS, 1% BSA, and then resuspended at 3×10⁶ cells/ml. SgGs (described above) were added at the indicated concentrations in Staining Buffer (Becton Dickinson) and incubated at 4 degrees C. for 1 hour. Next the cells were washed in stain buffer and resuspended with 1:133 diluted biotinylated goat anti-human IgG (Southern Biotech #2040-08) and incubated at 4 degrees C. for 1 hour. Cells were then washed in stain buffer and resuspended with Alexa488 conjugated streptavidin (Invitrogen #S11223) and incubated at 4 degrees C. for 1 hour. One microliter of the vital stain 7AAD (Invitrogen #A1310) was added during the last 15 minutes of incubation. Cells were washed with stain buffer and analyzed on a flow cytometer.
(§2) Thereafter only signals arising from this gated population were analyzed. Geometric mean fluorescence intensity for cells stained using the indicated concentrations of SBPs were determined using FLOWJO analysis software and EC50s were calculated using Graphpad Prism.

[2] = molecular target: T2, murine ErbB3-Fc (R&D Systems) (mouse, UniProt Q61526 20-641); test: ELISA, SgG on plate-coated murine ErbB3-Fc
T2 construct: Bought protein; also called mouse ErbB3; not shown: Fc part of the bought fusion protein; not described
T2 sequence (Q61526 20-641 limits assumed): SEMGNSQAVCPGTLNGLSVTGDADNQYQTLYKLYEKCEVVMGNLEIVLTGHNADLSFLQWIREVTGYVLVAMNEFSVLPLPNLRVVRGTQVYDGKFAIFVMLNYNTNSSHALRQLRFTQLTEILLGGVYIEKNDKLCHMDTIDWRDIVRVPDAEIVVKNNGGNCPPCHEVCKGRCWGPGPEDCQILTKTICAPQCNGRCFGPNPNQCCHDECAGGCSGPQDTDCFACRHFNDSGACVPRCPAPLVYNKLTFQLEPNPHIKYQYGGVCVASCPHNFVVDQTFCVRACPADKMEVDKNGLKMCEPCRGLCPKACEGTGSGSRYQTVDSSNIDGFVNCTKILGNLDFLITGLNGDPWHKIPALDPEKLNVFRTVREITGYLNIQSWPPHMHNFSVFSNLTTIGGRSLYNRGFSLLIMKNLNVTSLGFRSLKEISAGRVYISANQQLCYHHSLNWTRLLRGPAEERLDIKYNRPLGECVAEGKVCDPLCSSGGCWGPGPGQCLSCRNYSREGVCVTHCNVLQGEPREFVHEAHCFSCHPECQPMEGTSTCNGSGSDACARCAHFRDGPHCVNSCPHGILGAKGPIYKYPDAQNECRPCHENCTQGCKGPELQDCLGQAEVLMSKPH
Description: (§3) Binding was detected using a biotinylated antibody that recognizes VpreB, followed by strepatvidin HRP. Detection used a colorimetric HRP substrate. Data was analyzed via using GraphPad Prism.

[3] = molecular target: T2, murine ErbB3-Fc (R&D Systems); test: ELISA, SgG on plate-coated murine ErbB3-Fc, anti-VpreB detection
Description: as §3

[4] = molecular target: T3, human ErbB3-Fc (R&D Systems) (human, UniProt P21860 20-643); test: ELISA on plate-coated human ErbB3-Fc, detection biotinylated anti-VpreB and streptavidin HRP (Example 52)
T3 construct: Bought protein; also called wild-type ErbB3-Fc fusion; immobilized ErbB3; not shown: Fc part of the bought fusion protein; not described
Text: (§4) ELISA plates were coated with human ErbB3-Fc, EGFR-Fc (ErbB1) or ErbB2-Fc. Various concentrations of the indicated anti-ErbB3 SBPs were then allowed to bind to the coated wells. Binding was detected using a biotinylated antibody that specifically recognizes VpreB, followed by streptavidin HRP. Detection used a colorimetric HRP substrate.

[5] = molecular target: T3, human ErbB3-Fc (R&D Systems); test: ELISA on plate-coated human ErbB3-Fc without NRG, detection biotinylated anti-VpreB and streptavidin HRP (Example 43); axis labelled log [Sab] nM, text speaks of SgGs
Text: (§5) The resulting bound SgGs were detected using a biotinylated anti-VpreB, followed by streptavidin HRP colorimetric detection.

[6] = molecular target: T4, EGFR-Fc (ErbB1) (human, UniProt P00533 25-645); test: ELISA on plate-coated EGFR-Fc (ErbB1), detection biotinylated anti-VpreB (Example 52)
T4 construct: The sentence reads 'human ErbB3-Fc, EGFR-Fc (ErbB1) or ErbB2-Fc'; 'human' is read as applying to all three; not shown: Fc part; not described
Text: as §4

[7] = molecular target: T3, human ErbB3-Fc (R&D Systems); test: ELISA, inhibition of binding of NRG1-beta 1 ECD (0.26 ug/ml) to plate-coated human ErbB3-Fc
Description: ELISA plates were coated with human ErbB3-Fc. Various concentrations of the indicated anti-ErbB3 SBPs were then allowed to bind to the coated wells. […] Detection used a colorimetric HRP substrate.
Data was analyzed using GraphPad Prism.

[8] = molecular target: T3, human ErbB3-Fc (R&D Systems); test: ELISA, SgG on plate-coated human ErbB3-Fc
Description: (§6) Binding was detected using a biotinylated antibody that specifically recognizes VpreB, followed by streptavidin HRP. Detection used a colorimetric HRP substrate. Data was analyzed via using GraphPad Prism.

[9] = molecular target: T5, ErbB2-Fc (human, UniProt P04626 23-652); test: ELISA on plate-coated ErbB2-Fc, detection biotinylated anti-VpreB (Example 52)
T5 construct: The sentence reads 'human ErbB3-Fc, EGFR-Fc (ErbB1) or ErbB2-Fc'; 'human' is read as applying to all three; not shown: Fc part; not described
Text: as §4

[10] = molecular target: T1, human ErbB3 expressed on the surface of …; test: flow cytometry on BxPC-3 cells, geometric mean fluorescence intensity
Description: as §1, §2

[11] = molecular target: T3, human ErbB3-Fc (R&D Systems); test: ELISA on plate-coated human ErbB3-Fc with 1.85 nM NRG1-beta 1 extracellular domain added before the SBP (+ NRG), detection biotinylated anti-VpreB (Example 43); axis labelled log [Sab] nM
Text: as §5

[12] = molecular target: T3, human ErbB3-Fc (R&D Systems); test: ELISA, SgG on plate-coated human ErbB3-Fc, anti-VpreB detection
Description: as §6

B1: 2716-F05 surroglobulin (SgG) (other)
VH: EVQLLESGGGLVQPGGSLRLSCAASGFTFSNYWMHWVRQAPGKGLEWVALISGGGGNTYYADSVKGRFTISRDNSKNTLYLQMNSLRAEDTAVYYCAKDNEKNLYTWLDYWGQGTLVTVSS
light: QPVLHQPPAMSSALGTTIRLTCTLRNDHDIGVYSVYWYQQRPGHPPRFLLRYFSQSDKSQGPQVPPRFSGSKDVARNRGYLSISELQPEDEAMYYCAMGARSSVTHVFGSGTQLTVLSQPKATPSVTLFPPSSEELQANKATLVCLMNDFYPGILTVTWKADGTPITQGVEMTTPSKQSNNKYAASSYLSLTPEQWRSRRSYSCQVMHEGSTVEKTVAPAECS
notes: also called anti-ErbB3 SgG
B1 showed an EC50 [1] of 40 pM, an EC50 [2] of 95 pM and an EC50 [3] of 60 pM. For the same binder, the “EC50 (read off the curve)” value [4] was roughly 80 pM, the “EC50 (read off the curve)” value [5] was roughly 500 pM and the binding result [6] was “no binding (tested: 1000 nM)”. The IC50 [7] was 520 pM, the EC50 [8] was 49 pM and the binding result [9] was “no binding (tested: 1000 nM)”. For the same binder, the EC50 [10] was 40 pM, the “EC50 (read off the curve)” value [11] was roughly 700 pM and the EC50 [12] was 50 pM.
